# Patent US20030166870A1
# Like-named read-outs stand apart in the source and are kept apart here.
# Assays:
# [1] = biological target: FLAG-tagged human CCR5 expressed on transfected L1.2 murine pre-B lymphoma cells (human) (UniProt P51681); test: inhibition of 0.1 nM 125I-MIP-1β binding to CCR5 L1.2 transfectants by decreasing amounts of mAb; competitor MIP-1β
# [2] = biological target: human CCR5 (no tag stated) (human) (UniProt P51681); test: 10 µg/ml mAb; 125I-RANTES binding to activated IL-2 maintained T cells (CD3 blasts); competitor RANTES
# [3] = biological target: FLAG-tagged human CCR5 expressed on transfected L1.2 murine pre-B lymphoma cells (human) (UniProt P51681)
# [4] = biological target: FLAG-tagged human CCR5 expressed on transfected L1.2 murine pre-B lymphoma cells (human) (UniProt P51681); test: inhibition of 0.1 nM 125I-MIP-1α binding to CCR5 L1.2 transfectants by decreasing amounts of mAb; competitor MIP-1α
# [5] = biological target: human CCR5 (no tag stated) (human) (UniProt P51681); test: cell-based or functional assay
# [6] = biological target: FLAG-tagged human CCR5 expressed on transfected L1.2 murine pre-B lymphoma cells (human) (UniProt P51681); test: cell-based or functional assay
# [7] = biological target: FLAG-tagged human CCR5 expressed on transfected L1.2 murine pre-B lymphoma cells (human) (UniProt P51681); test: inhibition of 0.1 nM 125I-RANTES binding to CCR5 L1.2 transfectants by decreasing amounts of mAb; competitor RANTES
# [8] = biological target: human CCR5 (no tag stated) (human) (UniProt P51681); test: 10 µg/ml mAb; 125I-MIP-1α binding to activated IL-2 maintained T cells (CD3 blasts); competitor MIP-1α
substance,measurement,setting,value
murine monoclonal antibody 2D7,IC50,[1],0.041 mg/L
same,percent inhibition of 125I-RANTES binding,[2],95%
same,IC50,[3],0.01 mg/L
same,concentration giving complete inhibition of 125I-gp120 binding,[3],50 ng/mL
same,IC50,[4],0.023 mg/L
same,inhibition of RANTES and MIP-1α chemotactic responses by T cell lines,[5],60 to 80%
same,inhibition of chemotactic response of anti-CD3/IL-2 stimulated T cells to MIP-1α,[5],60 to 80%
same,mAb concentration sufficient for complete inhibition of migration of CCR5 L1.2 cells to all of the ligands,[6],20 µg/mL
same,IC50,[7],0.058 mg/L
same,percent inhibition of 125I-MIP-1α binding,[8],85%
